Test results as given in publication PMC11087952, “Biochemical characterization of Escherichia coli DnaC variants that alter DnaB helicase loading onto DNA” (The Journal of Biological Chemistry, 2024).
Where a chain is given by its changes, count along the chain named. Names and notes keep the numbering of the source.

T1: DnaC 1331 (Escherichia coli, UniProt P0AEF0 1-245, A84T)
T1 sequence: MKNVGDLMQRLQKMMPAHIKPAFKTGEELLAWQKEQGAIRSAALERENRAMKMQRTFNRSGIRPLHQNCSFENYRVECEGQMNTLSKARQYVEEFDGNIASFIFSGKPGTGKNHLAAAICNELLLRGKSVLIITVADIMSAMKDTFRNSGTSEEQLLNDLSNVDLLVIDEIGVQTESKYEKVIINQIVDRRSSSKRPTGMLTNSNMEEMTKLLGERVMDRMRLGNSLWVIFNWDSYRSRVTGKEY

T2: DnaC 809,820 (Escherichia coli, UniProt P0AEF0 1-245, E176G;K178N)
T2 sequence: T1 sequence with T84A, E176G, K178N

T3: DnaC 809 (Escherichia coli, UniProt P0AEF0 1-245, E176G)
T3 sequence: T1 sequence with T84A, E176G

T4: DnaC (wild-type) (Escherichia coli, UniProt P0AEF0 1-245)
T4 sequence: T1 sequence with T84A

B1: dT20 (ssDNA)
DNA: TTTTTTTTTTTTTTTTTTTT
B2: DnaC 809 (E176G) (natural protein, E. coli, UniProt P0AEF0 1-245, looked up)
chain: T1 sequence with T84A, E176G
notes: DnaC helicase loader, E. coli, with E176G; Point mutation introduced by site-directed mutagenesis; the allele was first isolated as a suppressor of priA deficiency; also called product of dnaC809
B3: DnaC 811 (I184F) (natural protein, E. coli, UniProt P0AEF0 1-245, looked up)
chain: T1 sequence with T84A, I184F
notes: DnaC helicase loader, E. coli, with I184F; Point mutation introduced by site-directed mutagenesis; also called product of dnaC811
B4: DnaC 809,820 (E176G, K178N) (natural protein, E. coli, UniProt P0AEF0 1-245, looked up)
chain: T1 sequence with T84A, E176G, K178N
notes: DnaC helicase loader, E. coli, with E176G and K178N; Point mutations introduced by site-directed mutagenesis; also called product of dnaC809,820

What was measured:
[1] = target: T1, DnaC 1331; test: fluorescence anisotropy; 5 mM Mg2+, 2 mM ATP; similar to wild-type; 50 mM HEPES-KOH pH 7.5, 125 mM KCl, 10% glycerol, 5 mM MgCl2, 2 mM ATP, 2 mM DTT, 0.1 mg/ml BSA, 10 nM DNA, 0-50 uM DnaC; 37 C 15 min, read at 25 C; saturation; settings: protein: recombinant; tags: 6XHis-MBP, TEV cleaved; periplasmic localization signal on expression construct; single strand
[2] = target: T2, DnaC 809,820; test: as above; settings: protein: recombinant; tags: 6XHis-MBP, TEV cleaved; periplasmic localization signal on expression construct; single strand
[3] = target: T3, DnaC 809; test: as above; settings: protein: recombinant; tags: 6XHis-MBP, TEV cleaved; periplasmic localization signal on expression construct; single strand
[4] = target: T4, DnaC (wild-type); test: fluorescence anisotropy; 5 mM Mg2+, 2 mM ATP; 50 mM HEPES-KOH pH 7.5, 125 mM KCl, 10% glycerol, 5 mM MgCl2, 2 mM ATP, 2 mM DTT, 0.1 mg/ml BSA, 10 nM DNA, 0-50 uM DnaC; 37 C 15 min, read at 25 C; saturation; settings: protein: recombinant; tags: 6XHis-MBP removed by TEV; single strand
[5] = target: T5, Escherichia coli DnaB replicative helicase (wild-type) (E. coli, UniProt P0ACB0 1-471); test: SEC; 10 nmol DnaB and 12 nmol DnaC (1.2:1 DnaC:DnaB) in 20 mM Tris-HCl pH 8.5, 0.2 M NaCl, 5 mM MgCl2, 1 mM BME, 1 mM ATP; analytical size exclusion column (Increase 10/300 GL); peak fractions analysed by PAGE for DnaB and DnaC; settings: both partners purified
T5 construct: DnaB replicative DNA helicase, E. coli, wild-type; The introduction describes DnaB as a closed ring-shaped hexamer; also called DnaB helicase
T5 sequence (P0ACB0 whole entry): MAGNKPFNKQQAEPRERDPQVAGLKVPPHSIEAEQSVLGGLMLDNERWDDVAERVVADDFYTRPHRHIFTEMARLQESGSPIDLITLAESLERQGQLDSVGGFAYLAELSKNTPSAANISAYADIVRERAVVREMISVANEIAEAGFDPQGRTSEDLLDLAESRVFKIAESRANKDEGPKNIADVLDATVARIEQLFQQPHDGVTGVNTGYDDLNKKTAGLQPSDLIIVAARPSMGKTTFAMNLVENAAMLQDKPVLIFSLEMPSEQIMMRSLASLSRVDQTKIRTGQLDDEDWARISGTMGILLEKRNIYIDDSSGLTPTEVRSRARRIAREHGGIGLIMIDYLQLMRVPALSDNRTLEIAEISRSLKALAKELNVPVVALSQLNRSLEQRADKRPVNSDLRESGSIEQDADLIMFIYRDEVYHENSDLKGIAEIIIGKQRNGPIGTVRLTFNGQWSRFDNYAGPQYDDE

Row | Binder | binding result [1] | binding result [2] | binding result [3] | binding result [4] | binding result [5]
1 | B1 | binds | binds | binds | binds | –
2 | B2 | – | – | – | – | binds
3 | B3 | – | – | – | – | binds
4 | B4 | – | – | – | – | binds
